Positions count from the first letter of the chain named. In names and notes the source's numbering stands.
B1: glutathione-S-transferase (GST)–tagged LMBD1 (natural protein, human, UniProt Q9NUN5 1-540, looked up)
chain: MATSGAASAELVIGWCIFGLLLLAILAFCWIYVRKYQSRRESEVVSTITAIFSLAIALITSALLPVDIFLVSYMKNQNGTFKDWANANVSRQIEDTVLYGYYTLYSVILFCVFFWIPFVYFYYEEKDDDDTSKCTQIKTALKYTLGFVVICALLLLVGAFVPLNVPNNKNSTEWEKVKSLFEELGSSHGLAALSFSISSLTLIGMLAAITYTAYGMSALPLNLIKGTRSAAYERLENTEDIEEVEQHIQTIKSKSKDGRPLPARDKRALKQFEERLRTLKKRERHLEFIENSWWTKFCGALRPLKIVWGIFFILVALLFVISLFLSNLDKALHSAGIDSGFIIFGANLSNPLNMLLPLLQTVFPLDYILITIIIMYFIFTSMAGIRNIGIWFFWIRLYKIRRGRTRPQALLFLCMILLLIVLHTSYMIYSLAPQYVMYGSQNYLIETNITSDNHKGNSTLSVPKRCDADAPEDQCTVTRTYLFLHKFWFFSAAYYFGNWAFLGVFLIGLIVSCCKGKKSVIEGVDEDSDISDDEPSVYSA
notes: LMBD1 (lysosomal membrane protein encoded by LMBRD1), human; GST itself can dimerise; the dimer seen by cross-linking is of the GST fusion; also called LMBD1–GST; source: also reconstituted in liposomes with His-ABCD4
B2: His-tagged human ABCD4 (natural protein)
chain: AVAGPAPGAGARPRLDLQFLQRFLQILKVLFPSWSSQNALMFLTLLCLTLLEQFVIYQVGLIPSQYYGVLGNKDLEGFKTLTFLAVMLIVLNSTLKSFDQFTCNLLYVSWRKDLTEHLHRLYFRGRAYYTLNVLRDDIDNPDQRISQDVERFCRQLSSMASKLIISPFTLVYYTYQCFQSTGWLGPVSIFGYFILGTVVNKTLMGPIVMKLVHQEKLEGDFRFKHMQIRVNAEPAAFYRAGHVEHMRTDRRLQRLLQTQRELMSKELWLYIGINTFDYLGSILSYVVIAIPIFSGVYGDLSPAELSTLVSKNAFVCIYLISCFTQLIDLSTTLSDVAGYTHRIGQLRETLLDMSLKSQDCEILGESEWGLDTPPGWPAAEPADTAFLLERVSISAPSSDKPLIKDLSLKISEGQSLLITGNTGTGKTSLLRVLGGLWTSTRGSVQMLTDFGPHGVLFLPQKPFFTDGTLREQVIYPLKEVYPDSGSADDERILRFLELAGLSNLVARTEGLDQQVDWNWYDVLSPGEMQRLSFARLFYLQPKYAVLDEATSALTEEVESELYRIGQQLGMTFISVGHRQSLEKFHSLVLKLCGGGRWELMRIKVE
notes: ABCD4 (ABC transporter subfamily D member 4), human; also called His-ABCD4; wildtype ABCD4; source: also reconstituted in liposomes
B3: His-ABCD4 (Y319C) (natural protein, human)
chain: B2 chain with Y318C
notes: ABCD4, human, with the clinical missense mutation Y319C; Y319C is a clinical mutation reported in cobalamin deficiency; source: K. phaffii, purified and reconstituted in liposomes using the same procedure as used for His-ABCD4
B4: His-ABCD4 (N141K) (natural protein, human)
chain: B2 chain with N140K
notes: ABCD4, human, with the clinical missense mutation N141K; N141K is a clinical mutation reported in cobalamin deficiency; source: K. phaffii, purified and reconstituted in liposomes using the same procedure as used for His-ABCD4

Assays:
His-tagged human ABCD4 = target: B2; test: cross-linking; purified His-ABCD4 and LMBD1–GST mixed; SDA and m-maleimidobenzoyl-N-hydroxysuccinimide ester (2 mM each), UV irradiation; immunoblot; conditions: both partners purified
[1] = target: the molecule itself; test: as above
[2] = target: the molecule itself; test: SEC; purified His-ABCD4 solubilized in β-DDM; size exclusion chromatography, polydisperse profile with a ∼360 kDa major peak
[3] = target: the molecule itself; test: not stated; mutant His-ABCD4 reconstituted in liposomes (Fig. S11B); the text does not name the method

B1
stoichiometry N (His-tagged human ABCD4): 1 | stoichiometry N [1]: 2

B2
stoichiometry N [2]: 2

B3
stoichiometry N [3]: 2

B4
stoichiometry N [3]: 2
